Reference: US20170260508A1 (FRED HUTCHINSON CANCER RESEARCH CENTER, published 2017)
Each block holds one binder with its values, some of them ahead of it.

B6: Angptl2-FLAG, full-length human Angptl2 secreted from transfected 293T cells (ligand)
chain: QEDGFEGTEEGSPREFIYLNRYKRAGESQDKCTYTFIVPQQRVTGAICVNSKEPEVLLENRVHKQELELLNNELLKQKRQIETLQQLVEVDGGIVSEVKLLRKESRNMNSRVTQLYMQLLHEIIRKRDNALELSQLENRILNQTADMLQLASKYKDLEHKYQHLATLAHNQSEIIAQLEEHCQRVPSARPVPQPPPAAPPRVYQPPTYNRIINQISTNEIQSDQNLKVLPPPLPTMPTLTSLPSSTDKPSGPWRDCLQALEDGHDTSSIYLVKPENTNRLMQVWCDQRHDPGGWTVIQRRLDGSVNFFRNWETYKQGFGNIDGEYWLGLENIYWLTNQGNYKLLVTMEDWSGRKVFAEYASFRLEPESEYYKLRLGRYHGNAGDSFTWHNGKQFTTLDRDHDVYTGNCAHYQKGGWWYNACAHSNLNGVWYRGGHYRSRYQDGVYWAEFRGGSYSLKKVVMMIRPNPNTFH
notes: Runs partly as a high molecular weight (>250 kD) multimer; also called full-length Angptl2; FLAG-tagged Angptl2; not shown: FLAG tag at the C terminus

Legend:
[1] = target: B6; test: flow cytometry, Angptl2 on 293T cells expressing the domain
Experimental: (§1) Flow cytometry. […] Cells were harvested at 48 h for analysis. […] Anti-LILRB2-PE was used as indicated. Cells were analyzed using either a FACSCalibur or FACSAria instrument (Becton Dickinson).
LILRB2 contains four extracellular immunoglobulin (Ig)-like domains. Takai et al., J Biomed Biotechnol. 2011; 2011:275302. […] To test this hypothesis, a number of domain and site-specific mutations of LILRB2 were generated for the flow cytometry-based cell surface ligand binding assay and chimeric reporter assay.

[2] = target: B6; test: flow cytometry, Angptl2 on 293T cells expressing the mutant
Experimental: as §1

[3] = target: T1, human LILRB2, wild-type full-length, on cells (human, UniProt Q8N423 22-597); test: flow cytometry, human cord blood mononuclear cells, anti-FLAG-APC and anti-human LILRB2-PE
T1 construct: the assay field says which; also called WT LILRB2; full-length LILRB2
Experimental: as §1

[4] = target: T1, human LILRB2, wild-type full-length, on …; test: flow cytometry, LILRB2 on 293T cells
[5] = target: T2, full-length LILRB2 G94D on 293T cells (human, UniProt Q8N423 22-597); test: flow cytometry, Angptl2 on 293T cells expressing mutant LILRB2
T2 construct: also called single mutation in G94
Experimental: as §1

[6] = target: T3, full-length LILRB2 with mutations in AA 92-100 (Mut-8 aa) (human); test: as above
T3 construct: also called the full-length LILRB2 with the same mutation
Experimental: as §1

[7] = target: T4, full-length LILRB2 Y96A on 293T cells (human, UniProt Q8N423 22-597); test: as above
T4 construct: also called single mutation in Y96
Experimental: as §1

[8] = target: T5, full-length LILRB2 R95E on 293T cells (human, UniProt Q8N423 22-597); test: as above
T5 construct: also called single mutation in R95
Experimental: as §1

binding result [1]: no binding
B1: LILRB2 Ig4 domain expressed on 293T cells (receptor)
chain: IRGTPFISVQPGPTVASGENVTLLCQSWRQFHTFLLTKAGAADAPLRLRSIHEYPKYQAEFPMSPVTSAHAGTYRCYGSLNSDPYLLSHPSEPLELVVSGPSMGSSPPPTGPISTPGPEDQPLTPTGSDPQSGLGRHL
notes: The range is stated for the chimeric reporter constructs; also called 4th Ig domain

binding result [2]: no binding
B2: full-length LILRB2 Y96A/G392D on 293T cells (receptor)
chain: QTGTIPKPTLWAEPDSVITQGSPVTLSCQGSLEAQEYRLYREKKSASWITRIRPELVKNGQFHIPSITWEHTGRAGCQYYSRARWSELSDPLVLVMTGAYPKPTLSAQPSPVVTSGGRVTLQCESQVAFGGFILCKEGEEEHPQCLNSQPHARGSSRAIFSVGPVSPNRRWSHRCYGYDLNSPYVWSSPSDLLELLVPGVSKKPSLSVQPGPVVAPGESLTLQCVSDVGYDRFVLYKEGERDLRQLPGRQPQAGLSQANFTLGPVSRSYGGQYRCYGAHNLSSECSAPSDPLDILITGQIRGTPFISVQPGPTVASGENVTLLCQSWRQFHTFLLTKAGAADAPLRLRSIHEYPKYQAEFPMSPVTSAHADTYRCYGSLNSDPYLLSHPSEPLELVVSGPSMGSSPPPTGPISTPGPEDQPLTPTGSDPQSGLGRHLGVVIGILVAVVLLLLLLLLLFLILRHRRQGKHWTSTQRKADFQHPAGAVGPEPTDRGLQWRSSPAADAQEENLYAAVKDTQPEDGVEMDTRAAASEAPQDVTYAQLHSLTLRRKATEPPPSQEREPPAEPSIYATLAIH
notes: also called Y96A combined with G392D

binding result [2]: no binding
B3: full-length LILRB2 Y96A/Y394A on 293T cells (receptor)
chain: QTGTIPKPTLWAEPDSVITQGSPVTLSCQGSLEAQEYRLYREKKSASWITRIRPELVKNGQFHIPSITWEHTGRAGCQYYSRARWSELSDPLVLVMTGAYPKPTLSAQPSPVVTSGGRVTLQCESQVAFGGFILCKEGEEEHPQCLNSQPHARGSSRAIFSVGPVSPNRRWSHRCYGYDLNSPYVWSSPSDLLELLVPGVSKKPSLSVQPGPVVAPGESLTLQCVSDVGYDRFVLYKEGERDLRQLPGRQPQAGLSQANFTLGPVSRSYGGQYRCYGAHNLSSECSAPSDPLDILITGQIRGTPFISVQPGPTVASGENVTLLCQSWRQFHTFLLTKAGAADAPLRLRSIHEYPKYQAEFPMSPVTSAHAGTARCYGSLNSDPYLLSHPSEPLELVVSGPSMGSSPPPTGPISTPGPEDQPLTPTGSDPQSGLGRHLGVVIGILVAVVLLLLLLLLLFLILRHRRQGKHWTSTQRKADFQHPAGAVGPEPTDRGLQWRSSPAADAQEENLYAAVKDTQPEDGVEMDTRAAASEAPQDVTYAQLHSLTLRRKATEPPPSQEREPPAEPSIYATLAIH
notes: also called Y96A combined with Y394A

binding result [3]: no binding
B4: fibrinogen-like domain (FBN) of Angptl2, FLAG-tagged (ligand)
chain: DKPSGPWRDCLQALEDGHDTSSIYLVKPENTNRLMQVWCDQRHDPGGWTVIQRRLDGSVNFFRNWETYKQGFGNIDGEYWLGLENIYWLTNQGNYKLLVTMEDWSGRKVFAEYASFRLEPESEYYKLRLGRYHGNAGDSFTWHNGKQFTTLDRDHDVYTGNCAHYQKGGWWYNACAHSNLNGVWYRGGHYRSRYQDGVYWAEFRGGSYSLKKVVMMIRPNPNTFH
notes: the whole Angptl2 entry is named; Migrates as a 37 kD monomer; also called FBN domain; fibrinogen domain; not shown: FLAG tag

binding result [4]: binds
B5: Angptl5-FLAG, secreted (ligand)
chain: NCVHHSTDSSVVNIVEDGSNAKDESKSNDTVCKEDCEESCDVKTKITREEKHFMCRNLQNSIVSYTRSTKKLLRNMMDEQQASLDYLSNQVNELMNRVLLLTTEVFRKQLDPFPHRPVQSHGLDCTDIKDTIGSVTKTPSGLYIIHPEGSSYPFEVMCDMDYRGGGWTVIQKRIDGIIDFQRLWCDYLDGFGDLLGEFWLGLKKIFYIVNQKNTSFMLYVALESEDDTLAYASYDNFWLEDETRFFKMHLGRYSGNAGDAFRGLKKEDNQNAMPFSTSDVDNDGCRPACLVNGQSVKSCSHLHNKTGWWFNECGLANLNGIHHFSGKLLATGIQWGTWTKNNSPVKIKSVSMKIRRMYNPYFK
notes: read as Angptl5; not shown: FLAG tag at the C terminus

Binder: B6
reduction of Angptl2 binding [5]: 50%
decrease of Angptl2 binding relative to the wild-type protein [6]: > 50%
reduction of Angptl2 binding [7]: 50%
reduction of Angptl2 binding [8]: 50%
